Test results reported in article PMC6943441, “The Meta-Position of Phe^4 in Leu-Enkephalin Regulates Potency, Selectivity, Functional Activity, and Signaling Bias at the Delta and Mu Opioid Receptors” (Molecules, 2019).

Molecular target: mu opioid receptor (Homo sapiens), P35372
Experiment: competition
Conditions: modification not given

Sequence of mu opioid receptor (Homo sapiens), P35372 (P35372 whole entry): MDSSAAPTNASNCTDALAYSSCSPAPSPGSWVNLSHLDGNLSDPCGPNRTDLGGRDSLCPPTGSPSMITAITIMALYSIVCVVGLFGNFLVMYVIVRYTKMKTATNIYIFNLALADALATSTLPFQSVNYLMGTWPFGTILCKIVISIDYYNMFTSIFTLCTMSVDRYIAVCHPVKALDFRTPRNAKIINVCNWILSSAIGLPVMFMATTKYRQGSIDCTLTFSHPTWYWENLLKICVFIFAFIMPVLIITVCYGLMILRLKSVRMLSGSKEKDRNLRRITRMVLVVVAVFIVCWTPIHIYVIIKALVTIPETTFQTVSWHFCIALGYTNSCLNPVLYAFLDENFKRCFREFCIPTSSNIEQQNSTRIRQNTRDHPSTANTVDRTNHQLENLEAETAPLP

YAGFL [DADLE] was tested, and the Ki was 1.58 nM.
